The labels stand for the following.
T1: monkey (Macaca fascicularis) HER3 on CHO-fasHER3 cells (monkey (Macaca fascicularis), UniProt P21860 20-643 (human entry))
T1 construct: CHO-S cells transfected with fasHER3
T1 chain: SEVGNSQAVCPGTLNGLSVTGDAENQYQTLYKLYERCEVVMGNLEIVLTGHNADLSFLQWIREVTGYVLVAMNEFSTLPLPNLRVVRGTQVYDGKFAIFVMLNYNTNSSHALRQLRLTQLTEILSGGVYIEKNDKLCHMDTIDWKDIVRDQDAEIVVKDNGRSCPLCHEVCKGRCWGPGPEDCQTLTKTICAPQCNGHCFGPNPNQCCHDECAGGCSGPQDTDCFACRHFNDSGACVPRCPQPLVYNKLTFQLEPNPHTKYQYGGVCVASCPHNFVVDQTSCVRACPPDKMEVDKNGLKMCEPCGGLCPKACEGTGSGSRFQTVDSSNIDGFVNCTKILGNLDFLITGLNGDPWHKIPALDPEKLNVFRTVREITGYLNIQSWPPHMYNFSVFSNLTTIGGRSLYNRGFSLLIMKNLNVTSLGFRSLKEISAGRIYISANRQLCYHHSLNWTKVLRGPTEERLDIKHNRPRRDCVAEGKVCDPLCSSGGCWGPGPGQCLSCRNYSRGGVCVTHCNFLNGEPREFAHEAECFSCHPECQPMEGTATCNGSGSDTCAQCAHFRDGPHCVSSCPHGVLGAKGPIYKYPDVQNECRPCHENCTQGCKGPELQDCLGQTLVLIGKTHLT

B1: anti-HER3/MET bispecific antibody 1C5-8D9 (bispecific antibody, V domains shown)
VH 1: QVQLVESGGGVVQPGKSLRLSCAASGFTFSRSGMHWVRQAPGKGLEWVALISFDGSNKYYADSVKGRFTISRDNSKNTLNLQMNSLRAEDTAVYYCAKGGFGVVIYDAFDIWGHGTMVTVSS
VH 2: QVQLQESGPGLVKPSETLSLTCTVSGGSISGHYWSWIRQSPGKGLEWIGYITYSGSTNYNPSLKSRVTISVDTSKNQFSLKLSSVTAADTAVYYCGTIAVAGRVYYYGVDVWGRGTTVTVSS
VL: not shown
B2: anti-HER3/MET bispecific antibody 1C5-2F11 (bispecific antibody, V domains shown)
VH 1: B1 VH 1
VH 2: EVQLVESGPGLVKPSETLSLTCTVSGGSISSNYWSWIRQPPGKGLEWIGYIYHSGSTNYNPSLKSRVTISVDTSKNQFSLKLSSVTAADTAVYFCARGPVSIFGVVKYIDLWGRGTLVTVSS
VL: not shown
B3: anti-HER3/MET bispecific antibody 1C5-8H10 (bispecific antibody, V domains shown)
VH 1: B1 VH 1
VH 2: QVQLQQWGAGLLKPSETLSLTCAVYGGSFSGYYWTWIRQPPGKGLEWIGESNHGGSTNFNPSLKSRVTISVDTSKNHFSLKLSPVTAADTAVYYCTRGGTIFGLKDAFDIWGQGTMVTVSS
VL: not shown
B4: anti-HER3/MET bispecific antibody 3E1-8H10 (bispecific antibody, V domains shown)
VH 1: EVQLVQSGPVLAKPTETLTLTCTVSGFSLSNIRMGVSWIRQPPGKALEWLAHIFSNDDKSYSPSLKNRLTISKDTSKSQVVLTMTTMDPMDTATYYCTRMKYSGGPFDYWGQGTLVTVSS
VH 2: B3 VH 2
VL: not shown
B5: anti-HER3/MET bispecific antibody 1B2-8H10 (bispecific antibody, V domains shown)
VH 1: QVQLVQSGPVLVKPTETLTLTCTVSTFSLSNARMGVSWIRQPPGKALEWLAHIFSNDDKSYSPSLKSRLTISKDTSKTQVVLTMTNMDPVDTATYYCSRMRYSGGPFDYWGQGSLVTVSS
VH 2: B3 VH 2
VL: not shown

In the first assay the target is T1, monkey (Macaca fascicularis) HER3 on …. Put plainly: flow cytometry, transfected CHO cells. On the procedure: (§1) Specifically, CHO-hHER3 cells, CHO-fasHER3 cells, NIH3T3-hMET cells or NIH3T3-fasMET cells were transferred to a 96-well plate at a density of 5×10⁴ cells/well respectively. The antibodies were added to the 96-well plate, and incubated at 4° C. for 30 min.
Background: Flow cytometry measures light scatter and fluorescence of single cells or particles in a stream.
On to B1, for which the “Positive Cells” value was 60.4%.
B2: the “Positive Cells” value came to 54.9%.
As to B3, the “Positive Cells” value came to 58.9%.
Consider B4, for which the “Positive Cells” value was determined as 66%.
B5: the “Positive Cells” value was 64.4%.

In another assay the target is T2, human HER3 on CHO-hHER3 cells (human, UniProt P21860 20-643).
T2 construct: CHO-S cells transfected with hHER3
Description: flow cytometry, transfected CHO cells. Here is the method:
as §1
B1: the “Positive Cells” value worked out at 64.8%.
Same read-out and setting: then B2, with 56%; and B3, with 67.3%; and B4, with 72.1%.
On the same count and under the same terms, then B5, with 67.9%.

The target in the next assay is T3, His-tagged human HER3 protein (hHER3, ACRO Biosystems Inc., Cat #: ER3-H5223) (human, UniProt P21860 20-643).
T3 construct: Bought protein; also called hHER3-His; not shown: His tag
Description: SPR, Ab captured on Protein A, antigen 400 nM. Here is the method:
(§2) Purified antibodies were captured on the Protein A chip (Series S Sensor Chip Protein A) for the detection. 2 μg/mL antibodies were loaded at 10 μL/min to bind to hHER3, fasHER3, hMET or fasMET (400 and 0 nM). The flow rate was 30 μL/min, the binding and dissociation time were set to 180 s and 400 s, respectively. The chip was regenerated after the last injection of each titration with a glycine solution ([…]) at 30 μL/min for 30 seconds.
As to B1, binding was put at a Kd of 31.1 nM; the koff (usually a measure of how fast the partners let go of each other) is 0.000605 s⁻¹; the kon (as a rule, the second-order rate constant of association) is 19400 M⁻¹ s⁻¹.
For the molecule B2, the dissociation constant Kd (commonly the concentration at which binding is half-saturated) amounted to 29.3 nM, the koff amounted to 0.000548 s⁻¹ and the kon was 18700 M⁻¹ s⁻¹.
The corresponding values for B3 are 28.5 nM, 0.000593 s⁻¹ and 20800 M⁻¹ s⁻¹.
On the same counts, the results for B4 are 14.5 nM, 0.00332 s⁻¹ and 229000 M⁻¹ s⁻¹.
The corresponding values for B5 are 16.9 nM, 0.00265 s⁻¹ and 157000 M⁻¹ s⁻¹.

Another assay has as its target T4, His-tagged monkey HER3 protein (fasHER3, Sino Biological, Inc., Cat #: 90043-K08H) (monkey).
T4 construct: Bought protein
Put plainly: SPR, Ab captured on Protein A, antigen 400 nM. On the procedure:
as §2
(Surface plasmon resonance follows binding to a sensor surface in real time, without labels.)
Take B1: the equilibrium dissociation constant (Kd) is 97 nM, the koff turned out to be 0.000671 s⁻¹ and the kon stood at 6920 M⁻¹ s⁻¹.
The corresponding values for B2 are 103 nM, 0.000582 s⁻¹ and 5630 M⁻¹ s⁻¹.
As to B3, the Kd was determined as 81.5 nM, the koff amounted to 0.000655 s⁻¹ and the kon was 8040 M⁻¹ s⁻¹.
The corresponding values for B4 are 32.2 nM, 0.00318 s⁻¹ and 98700 M⁻¹ s⁻¹.
On the same counts, the results for B5 are 38.7 nM, 0.00263 s⁻¹ and 67800 M⁻¹ s⁻¹.

The next assay deals with T5, His-tagged human MET (hMET, Sino Biological, Inc., Cat #: 10692-H08H) (human, UniProt P08581 25-932).
T5 construct: Bought protein; not shown: His tag
T5 sequence (P08581 25-932 limits assumed): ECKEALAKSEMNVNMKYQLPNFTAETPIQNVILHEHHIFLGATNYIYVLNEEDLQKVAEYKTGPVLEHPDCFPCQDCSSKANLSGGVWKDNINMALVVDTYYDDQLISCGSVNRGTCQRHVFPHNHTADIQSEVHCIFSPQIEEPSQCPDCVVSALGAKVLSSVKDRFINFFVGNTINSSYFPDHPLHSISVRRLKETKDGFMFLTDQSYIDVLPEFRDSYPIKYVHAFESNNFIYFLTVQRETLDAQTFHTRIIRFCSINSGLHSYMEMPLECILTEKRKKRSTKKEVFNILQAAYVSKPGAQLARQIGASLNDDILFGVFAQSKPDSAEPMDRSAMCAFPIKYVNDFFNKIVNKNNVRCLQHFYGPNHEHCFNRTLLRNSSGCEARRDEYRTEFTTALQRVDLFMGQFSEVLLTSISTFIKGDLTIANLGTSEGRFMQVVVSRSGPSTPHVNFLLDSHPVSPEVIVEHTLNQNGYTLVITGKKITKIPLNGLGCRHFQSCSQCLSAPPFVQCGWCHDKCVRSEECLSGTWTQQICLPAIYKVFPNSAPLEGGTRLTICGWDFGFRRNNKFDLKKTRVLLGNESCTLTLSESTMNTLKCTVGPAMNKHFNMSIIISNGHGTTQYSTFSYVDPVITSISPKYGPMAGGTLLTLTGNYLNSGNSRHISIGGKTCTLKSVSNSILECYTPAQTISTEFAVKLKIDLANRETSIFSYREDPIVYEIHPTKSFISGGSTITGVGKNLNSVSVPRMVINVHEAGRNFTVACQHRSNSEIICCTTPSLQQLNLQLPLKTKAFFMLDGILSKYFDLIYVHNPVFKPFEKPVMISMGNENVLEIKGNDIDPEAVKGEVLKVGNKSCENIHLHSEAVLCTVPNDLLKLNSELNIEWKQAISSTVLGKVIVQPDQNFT
Description: SPR, Ab captured on Protein A, antigen 400 nM. Here is the method:
as §2
Consider B1, for which the Kd came to 22.5 nM, the koff was 0.000531 s⁻¹ and the on-rate constant (kon) was determined as 23600 M⁻¹ s⁻¹.
The corresponding values for B2 are 44.2 nM, 0.00282 s⁻¹ and 63800 M⁻¹ s⁻¹.
For the molecule B3, the equilibrium dissociation constant (Kd) stood at 12.8 nM, the koff turned out to be 0.00427 s⁻¹ and the kon was found to be 333000 M⁻¹ s⁻¹.
B4 had an equilibrium dissociation constant (Kd) of 12.7 nM, an off-rate (koff) of 0.00516 s⁻¹ and a kon of 408000 M⁻¹ s⁻¹.
In turn, B5 registered a dissociation constant Kd of 10.9 nM, an off-rate (koff) of 0.00626 s⁻¹ and a kon of 574000 M⁻¹ s⁻¹.

The target in another assay is T6, human MET on NIH3T3-hMET cells (human, UniProt P08581 25-1390).
T6 construct: NIH3T3 cells transfected with a plasmid expressing hMET
T6 sequence (P08581 25-1390 limits assumed): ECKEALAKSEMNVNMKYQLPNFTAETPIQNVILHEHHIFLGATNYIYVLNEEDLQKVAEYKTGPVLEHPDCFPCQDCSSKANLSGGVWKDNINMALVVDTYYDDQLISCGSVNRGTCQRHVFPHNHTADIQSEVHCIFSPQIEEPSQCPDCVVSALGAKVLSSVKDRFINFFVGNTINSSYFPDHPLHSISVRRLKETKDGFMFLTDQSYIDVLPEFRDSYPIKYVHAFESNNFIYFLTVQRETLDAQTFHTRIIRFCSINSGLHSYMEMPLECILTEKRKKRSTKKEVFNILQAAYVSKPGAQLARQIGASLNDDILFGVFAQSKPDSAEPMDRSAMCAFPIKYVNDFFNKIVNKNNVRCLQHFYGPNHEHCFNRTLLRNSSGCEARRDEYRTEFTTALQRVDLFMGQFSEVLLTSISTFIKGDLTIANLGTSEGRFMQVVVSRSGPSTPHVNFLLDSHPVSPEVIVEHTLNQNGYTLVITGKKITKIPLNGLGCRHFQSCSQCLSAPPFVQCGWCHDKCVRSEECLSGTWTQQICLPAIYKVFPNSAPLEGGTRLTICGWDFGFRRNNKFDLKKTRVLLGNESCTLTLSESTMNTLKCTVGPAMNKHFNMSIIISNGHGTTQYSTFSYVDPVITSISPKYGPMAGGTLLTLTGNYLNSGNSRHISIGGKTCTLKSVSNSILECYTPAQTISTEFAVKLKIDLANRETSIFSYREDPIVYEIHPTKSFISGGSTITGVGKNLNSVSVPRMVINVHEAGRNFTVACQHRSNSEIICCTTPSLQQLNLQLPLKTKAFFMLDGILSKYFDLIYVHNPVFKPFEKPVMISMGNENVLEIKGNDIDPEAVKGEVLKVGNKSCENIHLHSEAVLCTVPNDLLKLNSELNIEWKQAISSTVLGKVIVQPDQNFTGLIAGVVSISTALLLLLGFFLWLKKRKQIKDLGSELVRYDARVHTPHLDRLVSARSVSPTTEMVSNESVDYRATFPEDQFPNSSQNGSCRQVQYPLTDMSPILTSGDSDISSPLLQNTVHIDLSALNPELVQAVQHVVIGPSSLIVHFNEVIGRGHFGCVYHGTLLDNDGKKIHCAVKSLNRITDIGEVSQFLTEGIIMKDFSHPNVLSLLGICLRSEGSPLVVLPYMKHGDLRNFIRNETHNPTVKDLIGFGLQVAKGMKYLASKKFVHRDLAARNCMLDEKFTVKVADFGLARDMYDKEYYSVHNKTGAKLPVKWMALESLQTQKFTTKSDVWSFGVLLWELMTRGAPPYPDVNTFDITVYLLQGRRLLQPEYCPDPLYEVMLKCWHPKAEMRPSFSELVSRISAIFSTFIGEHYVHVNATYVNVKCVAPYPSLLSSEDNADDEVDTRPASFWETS
Description: flow cytometry, transfected NIH3T3 cells. On the procedure: as §1
As for B1, the “Positive Cells” value was found to be 99.8%.
With B2, the “Positive Cells” value was determined as 99.7%.
On the same count and under the same terms, the same measure for B3: 99.8%; for B4: 99.7%.
On the same count and under the same terms, then B5, with 99.8%.

The target of another assay is T7, monkey MET on NIH3T3-fasMET cells (monkey, UniProt A0M8R7 25-1381).
T7 construct: NIH3T3 cells transfected with a plasmid expressing fasMET
T7 sequence (A0M8R7 25-1381 S170N/I621T limits assumed): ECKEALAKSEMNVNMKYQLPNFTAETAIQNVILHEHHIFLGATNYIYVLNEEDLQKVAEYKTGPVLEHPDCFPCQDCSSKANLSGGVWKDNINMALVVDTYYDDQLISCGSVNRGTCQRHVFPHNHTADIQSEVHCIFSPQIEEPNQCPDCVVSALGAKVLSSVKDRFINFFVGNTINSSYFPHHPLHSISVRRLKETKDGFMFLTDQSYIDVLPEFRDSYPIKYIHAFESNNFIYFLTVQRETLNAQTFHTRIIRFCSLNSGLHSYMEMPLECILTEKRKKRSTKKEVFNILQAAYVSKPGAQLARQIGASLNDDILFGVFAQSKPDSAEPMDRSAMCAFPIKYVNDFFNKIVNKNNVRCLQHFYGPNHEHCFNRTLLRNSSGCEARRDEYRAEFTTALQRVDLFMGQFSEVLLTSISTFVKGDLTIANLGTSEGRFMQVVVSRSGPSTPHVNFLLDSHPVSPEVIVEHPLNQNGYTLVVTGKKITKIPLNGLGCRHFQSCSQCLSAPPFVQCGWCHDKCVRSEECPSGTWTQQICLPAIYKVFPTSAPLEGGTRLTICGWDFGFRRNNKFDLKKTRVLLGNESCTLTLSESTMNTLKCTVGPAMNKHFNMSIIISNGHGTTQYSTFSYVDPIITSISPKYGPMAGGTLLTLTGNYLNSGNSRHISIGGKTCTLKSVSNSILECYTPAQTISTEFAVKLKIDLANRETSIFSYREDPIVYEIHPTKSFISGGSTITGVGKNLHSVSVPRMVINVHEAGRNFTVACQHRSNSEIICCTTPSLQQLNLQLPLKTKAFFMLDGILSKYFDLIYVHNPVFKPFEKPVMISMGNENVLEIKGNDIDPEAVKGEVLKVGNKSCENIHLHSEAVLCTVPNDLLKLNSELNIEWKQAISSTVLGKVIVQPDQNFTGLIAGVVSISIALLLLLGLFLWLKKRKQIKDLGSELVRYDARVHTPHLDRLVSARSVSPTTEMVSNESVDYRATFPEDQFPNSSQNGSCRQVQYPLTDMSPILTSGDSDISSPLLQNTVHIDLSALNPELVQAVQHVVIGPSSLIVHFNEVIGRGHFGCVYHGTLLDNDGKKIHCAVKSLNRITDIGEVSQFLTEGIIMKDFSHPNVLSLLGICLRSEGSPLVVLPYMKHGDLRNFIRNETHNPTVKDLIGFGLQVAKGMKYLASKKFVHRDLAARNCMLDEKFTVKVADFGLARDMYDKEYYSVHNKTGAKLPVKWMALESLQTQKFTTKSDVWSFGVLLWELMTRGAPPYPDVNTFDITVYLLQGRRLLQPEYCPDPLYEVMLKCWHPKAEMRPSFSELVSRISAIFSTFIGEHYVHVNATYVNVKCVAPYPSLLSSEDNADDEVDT
Put plainly: flow cytometry, transfected NIH3T3 cells. On the procedure: as §1
Consider B1, for which the “Positive Cells” value worked out at 65.1%.
On the same count and under the same terms, the same measure for B2: 68.4%; for B3: 54.8%.
The same measure, in the same setting: the same measure for B4: 54.6%.
With B5, the “Positive Cells” value came to 57.2%.

For the origin of these results see patent US20260250418A1 (BIOCYTOGEN PHARMACEUTICALS BEIJING, published 2026).
